Sequences and labels used below:
B1: Azoarcus group I ribozyme (parent)
chain: GUGCCUUGCGCCGGGAAACCACGCAAGGGAUGGUGUCAAAUUCGGCGAAACCUAAGCGCCCGCCCGGGCGUAUGGCAACGCCGAGCCAAGCUUCGGCGCCUGCGCCGAUGAAGGUGUAGAGACUAGACGGCACCCACCUAAGGCAAACGCUAUGGUGAAGGCAUAGUCCAGGGAGUGGCGAAAGUCACACAAACCGG

Variants of B1 are the subject of the data set. The data set can be described thus: reverse-splicing fitness (ratio to wild type); higher = more active; in vitro selection; Mg2+ level not given. The method in brief:
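An in vitro group I ribozyme library with randomized positions was T7-transcribed and gel-purified. In triplicate, 10 pmol RNA in EPPS pH 7.5 was reacted with 50 pmoles of a 30-nt RNA substrate for 1 h at 37 °C across several added MgCl2 levels (1–48 mM), then stopped with EDTA. Products were reverse transcribed from a substrate-complementary primer, PCR-amplified and sequenced (HiSeq 4000). Fitness is a variant's read proportion after selection over that before, normalised to wild type.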
As to C82U A111G A120G A145G C150G C169G U176G, the reverse-splicing fitness is 0.00529. Turning to C82A A111U A120C A145C C150U C169G U176C, the reverse-splicing fitness was found to be 0.0353.

For C82A A111U A120G A145C U176C, the reverse-splicing fitness was found to be 0.012. Under C82G A111G A145G C150U U176A stands 0.174; under C82U A120C A145C C150U U176A, 0.0173; under A111C A120U C150U C169U U176A, 0.0122. Regarding C82U A120C A145G C150U C169U U176G, the reverse-splicing fitness is 0.00416. Turning to A111U A120U A145G C150G C169A U176A, the reverse-splicing fitness is 0.0087. The value for C82A A111G A120C A145C C150A C169U was 0.00853. On to C82G A111U A120U A145C C150G C169A U176C, for which the reverse-splicing fitness was found to be 0.00248. The value for C82A A111C A120G A145C C150A C169A U176C was 0.00778; that for C82U A111C A120C A145G C150A C169G U176G was 0.00635.

Consider C82A A120U A145U C150U U176A, for which the reverse-splicing fitness stood at 0.0232. Consider C82A A111C A120C A145U C150A C169U, for which the reverse-splicing fitness amounted to 0.0124. On to A111U A120U A145C C150A U176C, for which the reverse-splicing fitness was 0.00836.

As for A111C A120U C150G C169U U176C, the reverse-splicing fitness was 0.00564. C82U A111U A120C A145U C150U C169A U176C: the reverse-splicing fitness was 0.00781. Consider C82A A111C A120G A145C C150U, for which the reverse-splicing fitness came out at 0.00926.

Consider C82G A111G A120G A145U C150U C169G U176G, for which the reverse-splicing fitness is 0.00518.

Take C82G A111G A120G A145U C150U C169G U176A: the reverse-splicing fitness turned out to be 0.0161.

In the case of C82A A145U C150A U176A, the reverse-splicing fitness is 0.0485.

As to C82A A111C A120G A145G C169G U176C, the reverse-splicing fitness is 0.0266.

Take C82A A111C A120G C150A U176C: the reverse-splicing fitness is 0.0233. Turning to C82U A145C C150U C169A U176G, the reverse-splicing fitness is 0.00518.

As to C82A A111U A120U A145G C150G C169U U176A, the reverse-splicing fitness was determined as 0.00862. On to C82G C150U U176C, for which the reverse-splicing fitness came to 0.206.

On to C82G A111C A120U C169A U176A, for which the reverse-splicing fitness was found to be 0.00425.

In the case of A111U A145C C150U C169A, the reverse-splicing fitness stood at 0.0113. As to A111G A120U A145C C169G U176A, the reverse-splicing fitness is 0.00876.

In the case of C82U A111G A120G U176A, the reverse-splicing fitness amounted to 0.013.

C82G A120G A145C C169U U176A: the reverse-splicing fitness was found to be 0.0207. Under A111G A120U C169A U176A stands 0.0033; under A111C C150A C169U U176G, 0.00825; under C82A A111U A120U U176C, 0.0105. For C82A A120C A145U C150U C169A U176C, the reverse-splicing fitness turned out to be 0.0134. A111G A145U C150U C169G U176G: the reverse-splicing fitness turned out to be 0.0059. For the variant C82U A111C A120C C169U U176C, the reverse-splicing fitness stood at 0.0145.

For C82G A111G A120U A145U C150U C169U U176A, the reverse-splicing fitness worked out at 0.00291. Regarding C82A C150A U176A, the reverse-splicing fitness came to 0.0524. On to A111C A120C A145G C150U C169U, for which the reverse-splicing fitness was determined as 0.147.

In the case of C82A A111G A120C A145G C150G C169G U176C, the reverse-splicing fitness is 0.0115. For A120U A145U C150U C169G U176G, the reverse-splicing fitness stood at 0.00311.

Regarding C82A A120U A145C C150G C169U, the reverse-splicing fitness came to 0.00298. C82G A120G U176C: the reverse-splicing fitness is 0.0208. Under C82G A120G U176A stands 0.0149; under A120U A145U C150A C169U U176G, 0.00399. Regarding C82A A111G A120C A145G C150A C169G, the reverse-splicing fitness came out at 0.00915. As for C82A A111G A120G A145G C150G U176A, the reverse-splicing fitness stood at 0.00684. As for C82G A111G A145U C150G C169G U176A, the reverse-splicing fitness turned out to be 0.00911. Regarding A111U A120C C150G C169G U176A, the reverse-splicing fitness was found to be 0.00683. On to C82U A111G C150G C169U U176C, for which the reverse-splicing fitness was determined as 0.0122. In the case of A120G C150G C169A U176C, the reverse-splicing fitness came out at 0.0257.

For C82A A120U U176C, the reverse-splicing fitness is 0.0627. Regarding C82G A111G A145C U176G, the reverse-splicing fitness came to 0.116. As to C82U A111G C169A U176C, the reverse-splicing fitness stood at 0.0146. Consider C82A A111C A120G C150A C169G U176G, for which the reverse-splicing fitness stood at 0.00735. Take C82G A111C A120G A145G: the reverse-splicing fitness is 0.014. For C82A A111C C150G C169A U176C, the reverse-splicing fitness amounted to 0.0102. Regarding C82A A111U C150U C169A U176G, the reverse-splicing fitness was 0.00786. For the variant C82G A111G A120U A145G C150U C169A U176A, the reverse-splicing fitness is 0.00839.

For the variant A145G C150A C169A U176G, the reverse-splicing fitness turned out to be 0.00608. Regarding A111U A145G C150A U176G, the reverse-splicing fitness is 0.0951. Turning to C82G A111U A120U A145C C150U C169G, the reverse-splicing fitness amounted to 0.00286.

As to C82U A111U A120G A145U C150G C169G, the reverse-splicing fitness turned out to be 0.00671.

Take A145U C150G C169G: the reverse-splicing fitness was 0.0415. C82U A120G C150U U176A: the reverse-splicing fitness turned out to be 0.0106. Turning to C82U A111C A120G A145G C150A C169G, the reverse-splicing fitness is 0.00809. As to A111G A120C A145G C150A C169A U176G, the reverse-splicing fitness is 0.00507. For the variant C82A A145U C169A, the reverse-splicing fitness was 0.0085. C82G A111U A120C A145G U176A: the reverse-splicing fitness worked out at 0.0173.

For the variant C82A A111C A145C C150G C169A U176G, the reverse-splicing fitness amounted to 0.00742. On to C82A A111C A120U C150U C169U, for which the reverse-splicing fitness worked out at 0.00638. Take C82A A111C A120C C169G U176C: the reverse-splicing fitness was 0.0233.

For the variant C82G A111U A120G C169G U176C, the reverse-splicing fitness was 0.0225. For C82U A120G C150U C169G U176G, the reverse-splicing fitness worked out at 0.00429.

In the case of C82G A120C A145G C150A, the reverse-splicing fitness worked out at 0.0297.

With C82A A111U A145G C150G C169G U176C, the reverse-splicing fitness is 0.0133. C82A A111U A120U A145U C150A U176C: the reverse-splicing fitness was 0.00625. For the variant C82U A111U C169G U176G, the reverse-splicing fitness amounted to 0.0052. Under A111C A120U C169A U176G stands 0.00232; under C82U A111C A120G A145C C150U C169A U176G, 0.00505. Take C82U A111U A120G A145U C150G C169G U176C: the reverse-splicing fitness was found to be 0.00435.

Consider C82G A111U A120U A145G C150G C169A, for which the reverse-splicing fitness was 0.00873.

(Values after the RNAGym collection of RNA variant scans (doi:10.1093/molbev/msab373).)
